Measured values published in patent publication US20180194862A1 (AbbVie / Abbott, published 2018).
One block for each binder: values may come before it.

Legend:
MSLN (Table 10-1) = target: T1, MSLN (Table 10-1); test: MSLN binding, format not stated
T1 chain: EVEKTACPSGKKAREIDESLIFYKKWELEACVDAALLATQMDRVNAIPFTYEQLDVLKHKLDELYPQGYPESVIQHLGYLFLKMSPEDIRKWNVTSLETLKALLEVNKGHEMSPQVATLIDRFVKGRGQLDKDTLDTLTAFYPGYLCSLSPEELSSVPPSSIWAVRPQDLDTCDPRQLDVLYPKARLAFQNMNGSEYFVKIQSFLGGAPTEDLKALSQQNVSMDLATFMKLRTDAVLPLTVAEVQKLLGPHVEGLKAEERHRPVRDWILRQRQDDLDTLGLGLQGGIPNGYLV

mouse CD40 [1] = target: T2, mouse CD40 (mouse, UniProt P27512 20-193, limits assumed); test: CD40 binding, format not stated
T2 construct: also called murine CD40
T2 sequence (looked up): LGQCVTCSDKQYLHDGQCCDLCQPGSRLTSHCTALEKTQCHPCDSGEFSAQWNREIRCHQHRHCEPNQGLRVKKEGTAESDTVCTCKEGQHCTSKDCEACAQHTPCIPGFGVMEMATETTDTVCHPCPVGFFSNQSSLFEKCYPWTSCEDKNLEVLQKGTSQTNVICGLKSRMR

[2] = target: T3, human CD40 on cells (HEK293 stable transfectants, HEK-Blue CD40 cells, human B cells, monocytic cells, … (human, UniProt P25942 21-277)); test: FACS, HEK293 transfectants
T3 construct: also called cell-surface CD40
T3 sequence (P25942 21-277 limits assumed): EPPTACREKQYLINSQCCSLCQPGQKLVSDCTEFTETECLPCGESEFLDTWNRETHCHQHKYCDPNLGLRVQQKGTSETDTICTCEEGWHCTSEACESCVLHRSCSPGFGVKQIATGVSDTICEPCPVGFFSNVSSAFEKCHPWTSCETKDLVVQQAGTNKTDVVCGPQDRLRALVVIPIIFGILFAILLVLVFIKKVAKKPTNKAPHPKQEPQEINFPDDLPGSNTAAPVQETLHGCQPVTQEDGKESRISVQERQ

dog CD40 = target: T4, dog CD40 (dog, UniProt Q7YRL5 21-194, limits assumed); test: FACS
T4 sequence (looked up): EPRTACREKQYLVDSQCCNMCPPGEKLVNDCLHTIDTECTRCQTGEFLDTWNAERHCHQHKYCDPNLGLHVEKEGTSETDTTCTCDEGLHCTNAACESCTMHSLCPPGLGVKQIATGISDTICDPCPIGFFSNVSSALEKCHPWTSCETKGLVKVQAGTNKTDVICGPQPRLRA

mouse CD40 [3] = target: T2, mouse CD40; test: FACS

EC50 (MSLN (Table 10-1)): 1.39 µg/mL
EC50 (mouse CD40 [1]): 2.75 µg/mL
B1: LB-1 (bispecific antibody, mouse IgG1)
chain: EVQLVESGGGLVQPGRSLKLSCAASGFTFSNYDMAWVRQAPTKGLEWVASISPSGGRTYYRDSVKGRFTVSRDNAKSTLYLQMDSLRSEDTATYYCARHDGSYFDYWGQGVMVTVSSDLSGGGGSGGGGSGGGGSGGGGSTGDTVLTQSPALAVSPGERVTISCRASESVSTLMHWYQQKPGQQPKLLIYLASHLESGVPARFSGSGSGTDFTLTIDPVEADDTATYYCQESWNDPWTFGGGTKLELKRLEVPRDSGSKPCICTVPEVSSVFIFPPKPKDVLTITLTPKVTCVVVDISKDDPEVQFSWFVDDVEVHTAQTQPREEQFNSTFRSVSELPIMHQDWLNGKEFKCRVNSAAFPAPIEKTISKTKGRPKAPQVYTIPPPKEQMAKDKVSLTCMITDFFPEDITVEWQWNGQPAENYKNTQPIMDTDGSYFVYSKLNVQKSNWEAGNTFTCSVLHEGLHNHHTEKSLSHSPGKVDGASSPVNVSSPSVQDIQVQLVQSGAEVKKPGASVKVSCKASGYTFTGNYINWVRQAPGQGLEWMGIINPTKGWTLYAQKFQGRVTMTRDTSISTAYMELSSLRSEDTAVYYCARWHHGTWIFDYWGQGTLVTVSSDLSGGGGSGGGGSGGGGSGGGGSTGDIVLTQPPSVSGAPGQRVTISCSGSSSNIGSNYVSWYQQLPGTAPKLLIYNDNQRPSGVPDRFSGSKSGTSASLAITGLQSEDEADYYCSTYDRRTFSVFGGGTKLTVLG
notes: 1C10 scFv (VH→VL), murine IgG1 hinge-CH2-CH3, MOR06626 scFv (VH→VL); also called mouse bispecific formula (I) protein LB-1

binding result [2]: binds
binding result (dog CD40): no binding
binding result (mouse CD40 [3]): no binding
B2: huAb8-2 (antibody, human IgG1, V domains shown)
VH: EVQLVQSGAEVKKPGSSVKVSCKASGYTFTDYYINWVRQAPGQGLEWIGWIFPGSGSVYSNEQFKGRATLTVDRSTSTAYMELSSLRSEDTAVYFCASSLGKFAYWGQGTLVTVSS
VL: DIQMTQSPSSLSASVGDRVTITCKASQSVVTAVAWYQQKPGKSPKLLIYSASNRYTGVPSRFSGSGSGTDFTLTISSLQPEDFATYFCQQYSSYPYTFGGGTKVEIK
notes: human IgG1, kappa
